These results are taken from the domain aggregation screens of Martell et al. (2025).
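Also: 20 min heating vs room temperature control held 20 min.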

A short description of the series: soluble fraction after stress (log2 fold change); higher = more stays soluble; pooled small domains, quantitative proteomics. Conditions: stress: 75 degC.
As to “HMIDKIRYPELIMKLAHQQGGTIKRRDVEQLLHLQTKQAYRELSKLVDAGELVSVGRGPGAHYEVS”, the “soluble fraction (log2)” value was -0.316.

Regarding “HMIDQNEDLLSGYIDEVLSQNPDKVNEYLKGKSGLIGFFMGQIKQKSATALDAALLKSQLETALEKLRIK”, the “soluble fraction (log2)” value is -0.14.

Take “HMIDQSVVVQYLSKLTNTPYLKTREITMGEPYMQFERGEIKFQEYVEDIRALLPGGDRIDADRLRDIWMNS”: the “soluble fraction (log2)” value is -1.1.

In the case of “HMIDRADLWEALRKLPEDTLKLFSLHFEKGMTHDEISKHTDIPVGTVKTKLRRGLIEARKLAREF”, the “soluble fraction (log2)” value is -1.28.

“HMIDTPQELARLLRLLDEQNFEAEILFHKLRPDLLHLWSKEHVTRIAEALDAFDYQMALTLLNASP”: the “soluble fraction (log2)” value was -2.43.

With “HMIDVNLVQRGKTLHLRRRVPMRYSSVERREYVSISLKTDSEAEARRKAGAAWDQMIAAWEARLA”, the “soluble fraction (log2)” value was -0.382.

In the case of “HMIDYTDTSAVKDSAAVAGRVREMINEGVPIADVNAFIRSASENGLISDDSARRLRYMNDSR”, the “soluble fraction (log2)” value is -0.0436.

On to “HMIEDMTINIEERLSLNGDIKKSEYILQYIKPDFIRKVILSPELNKGEIYIYDSKKKVMYLPLFDQVSEEI”, for which the “soluble fraction (log2)” value is -0.355.

On to “HMIEINNLEDLKLMKEFILKNGKYGFGVFVGGKYIGLSDIGSVNSFKDTLGLPVVSLGNDDFKRFTEAH”, for which the “soluble fraction (log2)” value was -1.07.

For the sequence “HMIEQEQAFLEQVLKKYSQEELVLTVGSRTLVKYSAGQLERLLEHYPHVRLASSPVNGEAGFLLSRG”, the “soluble fraction (log2)” value was -0.0614.

As for “HMIEQIELEARVPDELGGQRLDQVAAQMFDDFSRSRLTGWIRDGSLTADGQQLRPRDIVYGGTLLQLKAEQ”, the “soluble fraction (log2)” value was 0.132.

With “HMIESFQNGLVEHDQFTRPNPWVTPNFSKIEVPSILLSGKHADIDLWKHQNSIENTKKNRPDLFKNYLKKN”, the “soluble fraction (log2)” value was -0.149.

As to “HMIEYILDYLANRGVYAASQGEQQQMEDGIARYLQENGLEDGNTGAYYQKYVSNHLQQISASDLKAYFLN”, the “soluble fraction (log2)” value is -0.946.

With “HMIEYYDDEELDVFKGRQSDNYTNKEIEQFAEVLHTMRQDEVKGWNRSLILRSINLPDSLKDEVIMLI”, the “soluble fraction (log2)” value is -0.568.

On to “HMIFDPTTLPEKQLLVYGIISSHPGLNAKQISEMLTLKKSSIETAIKGLRKKEIIEYEGTTRNGG”, for which the “soluble fraction (log2)” value was -0.267.

With “HMIFEEDILKEFRGSLIFITHDRRFLDNIATRIIELDRGKLLSFPGNFSAYKKAKNEQLANEAVENA”, the “soluble fraction (log2)” value was -0.439.

With “HMIFEETVFKDIAFGPKNMGLSEAEIKRRVYETAENIGLSQELMERSPFELSGGQKRRVAIAGVMAMEP”, the “soluble fraction (log2)” value turned out to be 0.268.

On to “HMIFELDSDRASAGNTIGKLVSKWNNTEVASVQFVSGDDTSNKDNASIYLNTRSGGSGNLVRLRITK”, for which the “soluble fraction (log2)” value was determined as 0.429.

Consider “HMIFRPALITDLDAVERHYTELLTREAETGRSSTNWSLGVYPTRQTATAAQAAGTLWVLEREGQVVASVI”, for which the “soluble fraction (log2)” value was -0.0961.

In the case of “HMIFTPNGDRVNDVFEIEMGVKLEFQIIILNQQNQTVFKSADPDFKWDGTMLNGEPAPSGTYLYYFSAKD”, the “soluble fraction (log2)” value came to 0.207.

For the sequence “HMIGERIKRARAAAGLSMQALGKQVGISANMVKKYEHDQSMPSSGVLLKLATALSVRTEYFFRPA”, the “soluble fraction (log2)” value was -1.38.

Take “HMIGGASVFKQFLPLADKMLLTLIHSEFEGDTYFPVFSEKEWLLQESSSLLSATGYQLSFQTYIR”: the “soluble fraction (log2)” value turned out to be 0.0107.

As for “HMIGGEDEILKVVLEVLEEKPEAIEQYKNGRTNIVDFLVGQVMKKTRGQANPATTREFMIREIEK”, the “soluble fraction (log2)” value was -0.522.

“HMIGKDLLGYEVFSESGDLVGILKDVMWLPHSDVYVITNGGKELLIPVIPEVVKGINHEQGVIVISPM”: the “soluble fraction (log2)” value amounted to 0.394.

For “HMIGPYAAAKLMTNKDFVKWLSGGVEKSVFNPNSFGQHIRRLVQISEVNPDIRDEINAVVQGLTQ”, the “soluble fraction (log2)” value is -0.445.

With “HMIGRIKGQLIEKKSDSVVIDVHGIGYVVYVTEKTARSLTLGDQSRDISLYSELLVKEDLLQLVGFI”, the “soluble fraction (log2)” value is -0.075.

For the sequence “HMIGRRLKVARASAGLSLRELAARMDGVVTPQAIGKYERNEDMPGSRALMALASALGVSEGYLLSD”, the “soluble fraction (log2)” value is -1.38.

With “HMIHDSAESVVFPFGKYKGYTLAHVIREHPHYTYWIRDNADFSPLWREAVSLALQNRDIGHLNLPHVK”, the “soluble fraction (log2)” value was -0.222.

For “HMIHMNMGQKINQLRLQKGFTLEELGNLVGVGKSTVRKWENGMIANMKRDKILLVAEALDTSPAYLMGWD”, the “soluble fraction (log2)” value was -2.12.

Regarding “HMIIENIVVEIKGEVYNPGLYILEQGSRINDLIELSGGFTKDANGTDLNLAKVLSDGEVIIVSKKG”, the “soluble fraction (log2)” value was -1.29.

“HMIIIMKPNASEEAVRKVTHIIESKGLQVHLSKGSQVTIVGVVGDKTRLQGSNIEISEGVDKVVAVT”: the “soluble fraction (log2)” value is -1.22.

In the case of “HMIILDASASRAIGNGTIEETKWDFGNGESSTNRGGPIVERQIYANQAAYILKLSMKTNDGQLFTKEIQLL”, the “soluble fraction (log2)” value stood at 0.162.

Turning to “HMIINKFERRKEIQIQFNNQERIKFKDFFLNLSKENIIVSFLILLELVRESLIDFSGTNENDIEFFIK”, the “soluble fraction (log2)” value is -2.38.

For the sequence “HMIITTPYKVTASAINIRSGRGTSYSIIGTVSKGQTVDVYNNSLSKGWVKVKFSGSVGYAYAKYLEK”, the “soluble fraction (log2)” value is -1.62.

Take “HMIIVMSANANAREISEVIARIRAMGYDVHLSHGKERTIIGVIGRGTPIDREQLSLMSGVQQVMPV”: the “soluble fraction (log2)” value is -2.44.

Regarding “HMIKIEDILNVESVELSDSEYKKFLNGILINVKNLENGWAKVYSGNEFKGFGIVDKNLLKRKIVID”, the “soluble fraction (log2)” value was -1.49.

Turning to “HMIKIEDYTNKDYNKVEASLEVKGLVVNIEYKAVDDKAKYKGKEDLIIDQSVKKDATLVKGDTIILYLPK”, the “soluble fraction (log2)” value is -1.21.

For the sequence “HMIKISDYLSEEDLNFIKEMEKIYPYFDFDSEGNLILTKSIDELKDKYGFDEAFVSRLDTVLNSR”, the “soluble fraction (log2)” value came to 0.108.

Regarding “HMIKITLGWVISVRRHDLGYTQHKMARAVGISDLTVSRIESDDGITPDNNTLRKIAEYLKIDYNSLLTLK”, the “soluble fraction (log2)” value is -1.37.

Take “HMIKLIKKDTNISELKMSKMPWDVMLYGKPYQVVSIKGYVHTIGGRRGENDLWMYPRDESPTYENLIEFQ”: the “soluble fraction (log2)” value is -2.19.

“HMIKNKDRIQYTLAHRKAFRKIEKELLGYNTFRSLFHDLDKVFLYPFFDYKKVHNFHRNHAHH”: the “soluble fraction (log2)” value came to 0.132.

For the sequence “HMIKRETNDNPVDPASLSLGDRVKILTLNQNGEIISLPDEKGLLQVQVGIMKIGVNVSDIMLI”, the “soluble fraction (log2)” value is -0.9.

For the sequence “HMIKRITDEQHPVDVDRLLVVTFTNAAASEMRERIGDAIEAALEKDPYNQHLQRQLTLVHNAQITTIDS”, the “soluble fraction (log2)” value was determined as 0.171.

On to “HMIKSEERIQNIKEYILEFQFTYHRTPTMAQIAEAVGTVKSNVYKYLSEMEERGILTRNKREIEINDTIQ”, for which the “soluble fraction (log2)” value is -0.807.

On to “HMIKSMTGYGSAKGTVEGIEVSVELKSVNNKFLDTSIRLPRSFLFAEETIKQAVSSHISRGKVDVFVSVDS”, for which the “soluble fraction (log2)” value worked out at 0.587.

“HMIKYTIEELGELTGFTRRTIRYYVQEGLIDPPAGRGRGGFYYDSHVQQLLRIKSFQEKGIGITAMVSLM”: the “soluble fraction (log2)” value is -2.32.

Regarding “HMILEEIIGKNIARYREAAGLTQATLAEKIGISTAFVSRVERGQKKMKVETLYATAKVLNVSVDALLS”, the “soluble fraction (log2)” value was -2.61.

Take “HMILKNVPSNLVNQRLDKVATVLFQTYSRTQIKKWILEGRLLVNGEISNPKDLVNENDEIEINPI”: the “soluble fraction (log2)” value is -2.95.

As for “HMILKQTHIVQELTGPIRLQEYGVGIFQQISTKSALKKALKKNQITVDGVVGSTATFIKGGEIIIYHVTE”, the “soluble fraction (log2)” value was -2.67.

“HMILNDRSELLDVVKRVIAANPASVADYRKGKKKVLGFLVGQAMKETKGQADPRILNELFLQELGEN”: the “soluble fraction (log2)” value turned out to be 0.108.
